This data set deals with the molecule itself. Description: SEC; HiLoad Superdex 200 PG, 20 mM Tris-HCl, 100 mM NaCl, pH 7.4; apo protein after Strep-tag purification; elution profile overlaid with that of a protein of known size (25.0 kDa).

B1: StrepMSMEG_0243 (truncated MSMEG_0243 lacking the predicted signal peptide) (natural protein, Mycobacterium smegmatis mc2155, UniProt A0QP20 26-116, looked up)
chain: DPAPNPPNCTAADLAGVASGVSAGTSAYLFTHPQVNDFFTSLEGLPREEVKPKVADYLAANPQVKDELTAVRQPLVDLKNRCGTAPAPELP
notes: truncated version lacking the predicted signal peptide (predicted cleavage site between pos. 25 and 26: ALA-DP); The methods name the vector once as pET-22(b)+ and once as pET-28(b)+; vector-derived residues may be present; also called apo-MSMEG_0243; source: E. coli Bl21 Rosetta, purified (Streptavidin beads, size exclusion chromatography)
As for B1, the “stoichiometry N” value worked out at 2.

These data come from paper PMC7516205, “The Two-Component Locus MSMEG_0244/0246 Together With MSMEG_0243 Affects Biofilm Assembly in M. smegmatis Correlating With Changes in Phosphatidylinositol Mannosides Acylation” (Frontiers in Microbiology, 2020).
